Patent publication US20260049134A1 (UNIVERSITY OF FLORIDA RESEARCH FOUNDATION, published 2026)
Substitutions are numbered along the chain they refer to. Names may count otherwise.

B1: HW-42 chimeric rabbit-human IgG1 LA/LA/PG (antibody, V domains shown)
VH: QSVKESEGGLFKPADTLTLTCTVSGFSLSSNEISWVRQAPGEGLEYIGIIDTGGRAYYAVWARSRSTITRNTNLNTVTLKMTSLTAADTATYFCARGGVDTEWYAFSSWGPGTLVTVPS
VL: SFVLTQPASVQVNLGQTVSLTCTADTLSRRYASWYQQKPGQAPVLLIFRDTSRPSGVPDRFSGSSSGDTATLTISGAQAGDEADYYCATSDGSGSNYQYVFGGGTQLTVTG
notes: Fc-silenced (L234A/L235A/P329G) IgG1, lambda; Alexa Fluor 647-labeled in single-step flow cytometry; Cluster C-1
B2: HW-101 chimeric rabbit-human IgG1 LA/LA/PG (antibody, V domains shown)
VH: QEQLVESGGRLVTPGTPLTLTCKASGFSLGKYDMSWVRQAPGKGLEWIGTIYAGSGSTWYASWAKGRFTISKTSTTVDLKMTSLTTEDTATYFCARDFLGVNSIWGPGTLVTISS
VL: B1 VL with R30S, G40D, F48H, S65N, D68N, Y97F, Q98H, Y99F
notes: Fc-silenced (L234A/L235A/P329G) IgG1, lambda; Alexa Fluor 647-labeled in single-step flow cytometry; Cluster C-97
B3: HW-1 chimeric rabbit-human IgG1 LA/LA/PG (antibody, V domains shown)
VH: QSLEESGGGLFKPTDTLTLTCTASGFSLGSSYAISWVRQAPGKELEWIGTIDSGRAYYARWAKSRSTITRNTNENTVTLKMTSLTAADTATYFCARDLIPTYSQDIWGPGTLVTISS
VL: B1 VL with F48Y, D68N, S95N, N96S, G111S
notes: Fc-silenced (L234A/L235A/P329G) IgG1, lambda; Alexa Fluor 647-labeled in single-step flow cytometry; Prototype of cluster C-1
B4: HW-28 chimeric rabbit-human IgG1 LA/LA/PG (antibody, V domains shown)
VH: QKQLVESGGRLVTPGTPLTLTCTASGFSLSSNAMSWVRQAPGEGLQWIGTISSGGSTYYASWAKGRFTISKTSTTVTLKMTSLTTEDTATYFCARGADLHRLWGPGTLVTVSS
VL: B1 VL with A24G, D25K, T26P, R30S, Y31F, L46V, F48Y, D68N, N96S
notes: Fc-silenced (L234A/L235A/P329G) IgG1, lambda; Alexa Fluor 647-labeled in single-step flow cytometry; Cluster C-45
B5: HW-25 chimeric rabbit-human IgG1 LA/LA/PG (antibody, V domains shown)
VH: QSLEESGGRLVTPGTPLTLTCTVSGFSLSSYAMGWVRQAPGKGLEWIGIIDSRGSTYYATWAKGRFTISKTSTTVDLKITSPTTEDTATYFCAREDSYYYDSFNLWGPGTLVTVSS
VL: B1 VL with F48Y, D68N, N96S, Y99C
notes: as for B1
B6: HW-17 chimeric rabbit-human IgG1 LA/LA/PG (antibody, V domains shown)
VH: QSLGESRGRLVTPDETLTLTCTVSGIDLSSNAMSWVRQAPGEGLEWIGTINTGGRAYYASWAKGRFTISRTSTTVDLKMTSLTTEDTATYFCARERYSDGRAYDIWGPGTLVTISS
VL: B1 VL with F48Y, R49T, T51S, S52N, V57I, D68N, S90D, N96I
notes: as for B1
B7: HW-70 chimeric rabbit-human IgG1 LA/LA/PG (antibody, V domains shown)
VH: QSLEESGGRLVTPGTPLTLTCTVSGFSLSSNAMSWVRQAPGKGLEWIGTIDGYGYTYYASWAKGRFTVSKTSTTVDLKITSPTTEDTATYFCAREIYLGSNFWGPGTLVTISS
VL: B1 VL with F48Y, D68N, S90A, N96S, Y99F
notes: as for B1
B8: HW-45 chimeric rabbit-human IgG1 LA/LA/PG (antibody, V domains shown)
VH: QKQLVESGGRLVTPGTPLTLTCTVSGFSLSSYAMGWFRQAPGKGLEWIGIINSYGSTYYASWAKGRFTISKTSTTVDLKITSPTTEDTATYFCGRRIGSARFDPWGPGTLVTVSS
VL: B1 VL with R30S, F48Y, S52R, D68N, N96S, Q98R, Y99L
notes: Fc-silenced (L234A/L235A/P329G) IgG1, lambda; Alexa Fluor 647-labeled in single-step flow cytometry; Prototype of cluster C-45
B9: HW-97 chimeric rabbit-human IgG1 LA/LA/PG (antibody, V domains shown)
VH: QKQLVESGGRLVTPGTPLTLTCTVTGIDLSSHGMSWVRQAPGKGLEWIGVIYPSGSTWYASWARGRFTISKTSTTVDLKMTSLTTEDTATHFCARGDVGGADNNIWGPGTLVTVSS
VL: B1 VL with N13D, D25E, R30S, F48Y, D68N, N96S
notes: Fc-silenced (L234A/L235A/P329G) IgG1, lambda; Alexa Fluor 647-labeled in single-step flow cytometry; Prototype of cluster C-97
B10: HW-56 chimeric rabbit-human IgG1 LA/LA/PG (antibody, V domains shown)
VH: QSVKESEGGLFKPTDTLTLTCTASGFTVSTNAVTWVRQAPGNGLEYIGTIGRSGSAYFASWAKRRSTLTRDINLNTVTLKMTSLTAADTATYFCVRGSPGYRTAISIWGPGTLVTISS
VL: AVMTQTPSSTSAAVEGTVTINCQASQSISNRLSWFQQKPGQPPKLLIYQASTLASGVPSRFKGSGSGTEFTLTISGVQREDAATYYCLGSYSSSDASFGGGTKLEIKR
notes: Fc-silenced (L234A/L235A/P329G) IgG1, kappa; Alexa Fluor 647-labeled in single-step flow cytometry; Cluster C-45
B11: HW-8 chimeric rabbit-human IgG1 LA/LA/PG (antibody, V domains shown)
VH: QSLEESGGRLVTPGTPLTLTCTVSGFSLSSYAMSWVRQAPGKGLEWIGAISTGGSTTYASWAKGRFTISKTSSTTVDLKMTSLTTEDTATYFCVRHFRLWGPGTLVTISS
VL: QVLTQTPSSVSAAVGGTVTIKCQASQSIGSALAWFQQKPGQRPKLLIYRASNLASGVPSRFKGSGSGTEFALTISGVQREDAATYYCLGGAAAVWAFGAGTNVEIKR
notes: as for B10
B12: HW-81 chimeric rabbit-human IgG1 LA/LA/PG (antibody, V domains shown)
VH: QKQLVESGGGLVTPGGTLTLTCTVSGFSLSSNGVSWVRQAPGKGLEYIGLIRSIGSTYYATWAKGRFTISKTSTTVDLKITSPTTEDTATYFCARGGYRNGFKLWGPGTLVTVSS
VL: QPVLTQSPSVSAALGASAKLTCTLSSAHKTYYIEWYQQQHPGKAPRYLMQLQSDGSYTKGTGVPDRFSGSSSGADRYLIISSVQAEDEADYICGVIDSAVYVFGGGTQLTVTG
notes: as for B4
B13: HW-16 chimeric rabbit-human IgG1 LA/LA/PG (antibody, V domains shown)
VH: QSLEESGGRLVTPGTPLTLTCTASGFSLSSYAMSWVRQAPGKGLEWIGTMPTGGGTYYASWAKGRFTISKTSTTVDLQITSPTTEDTATYFCAKHWNIWGPGTLVTISS
VL: DIVLTQTPSSTSTAVGDTVTINCRASQSIGRNLAWFQQKPGQPPKLLIYRASNLASGVPSRFKGSGSRTQFTLTISGVQREDAATYYCLGSYSSSDTAFGGGTELEILR
notes: as for B10

What was measured:
[1] = target: T1, PTPRG, endogenous in H929 multiple myeloma cells (human, UniProt P23470 20-1445); assay: flow cytometry, H929 + ICAM1 siRNA; None 1.06
T1 construct: Native protein on H929 cells (flow cytometry, siRNA knockdown) and in H929 lysates (IP/MS); also called phosphatase receptor type γ

[2] = target: T2, ICAM1-Fc (R&D Systems) (human, UniProt P05362 28-480); assay: ELISA on coated ICAM1-Fc
T2 construct: Bought; also called ICAM-1/CD54; not shown: Fc of the bought fusion protein
Procedure: Recombinant purified ECDs (50-150 ng) of each putative target protein were coated, incubated with 150 ng of the indicated primary antibody, and binding was detected using a peroxidase-conjugated anti-human Fab secondary antibody. Heatmap represents averages of technical triplicates. (8B) Target validation via siRNA knockdown. H929 cells were transfected with siRNA pools targeting the putative antibody targets ICAM1, CADM1, and PTPRG. Cells were then subjected to cognate IgG binding analysis via flow cytometry. (NT, non-targeting siRNA).
ELISA ELISA was conducted as described previously. Briefly, 50-150 ng of antigen was coated overnight in half-area 96-well plates at 4° C., blocked with 3% BSA at 37° C. for 1 h, and 150 ng of chimeric rabbit/human IgG1 was added, incubating for 2 h at 37° C. […] After incubating at 37° C. for 15 min-1 h (depending on intensity of controls), data were acquired using a SpectraMax M5 plate reader (Molecular Devices).

[3] = target: T1, PTPRG, endogenous in H929 multiple …; assay: flow cytometry, H929 + NT Green siRNA; None 1.35
[4] = target: T3, CADM1, endogenous in H929 multiple myeloma cells (human, UniProt Q9BY67 45-442); assay: flow cytometry, H929 + vehicle; None 2.74
T3 construct: Native protein on H929 cells (flow cytometry, siRNA knockdown) and in H929 lysates (IP/MS); RPMI-8226 cells were used for sorting with HW-97; also called IGSF4A
T3 sequence: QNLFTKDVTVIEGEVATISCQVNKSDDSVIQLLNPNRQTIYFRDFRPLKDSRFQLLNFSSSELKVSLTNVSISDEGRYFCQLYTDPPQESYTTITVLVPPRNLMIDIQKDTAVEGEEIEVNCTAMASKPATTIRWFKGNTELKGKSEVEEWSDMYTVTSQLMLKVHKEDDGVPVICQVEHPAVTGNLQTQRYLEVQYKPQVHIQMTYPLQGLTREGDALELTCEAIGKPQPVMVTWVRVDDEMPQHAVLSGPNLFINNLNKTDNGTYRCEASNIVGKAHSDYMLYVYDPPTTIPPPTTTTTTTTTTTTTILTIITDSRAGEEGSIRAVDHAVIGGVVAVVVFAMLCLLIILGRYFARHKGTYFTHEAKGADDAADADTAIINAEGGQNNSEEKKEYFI

[5] = target: T4, GARS, endogenous in H929 multiple myeloma cells (human, UniProt P41250 37-739, limits assumed); assay: flow cytometry, H929 + PTPRG siRNA; None 490; surface target GARS putative
T4 construct: Native protein pulled down from H929 lysates; also called Glycyl-tRNA synthetase; GlyRS
T4 sequence: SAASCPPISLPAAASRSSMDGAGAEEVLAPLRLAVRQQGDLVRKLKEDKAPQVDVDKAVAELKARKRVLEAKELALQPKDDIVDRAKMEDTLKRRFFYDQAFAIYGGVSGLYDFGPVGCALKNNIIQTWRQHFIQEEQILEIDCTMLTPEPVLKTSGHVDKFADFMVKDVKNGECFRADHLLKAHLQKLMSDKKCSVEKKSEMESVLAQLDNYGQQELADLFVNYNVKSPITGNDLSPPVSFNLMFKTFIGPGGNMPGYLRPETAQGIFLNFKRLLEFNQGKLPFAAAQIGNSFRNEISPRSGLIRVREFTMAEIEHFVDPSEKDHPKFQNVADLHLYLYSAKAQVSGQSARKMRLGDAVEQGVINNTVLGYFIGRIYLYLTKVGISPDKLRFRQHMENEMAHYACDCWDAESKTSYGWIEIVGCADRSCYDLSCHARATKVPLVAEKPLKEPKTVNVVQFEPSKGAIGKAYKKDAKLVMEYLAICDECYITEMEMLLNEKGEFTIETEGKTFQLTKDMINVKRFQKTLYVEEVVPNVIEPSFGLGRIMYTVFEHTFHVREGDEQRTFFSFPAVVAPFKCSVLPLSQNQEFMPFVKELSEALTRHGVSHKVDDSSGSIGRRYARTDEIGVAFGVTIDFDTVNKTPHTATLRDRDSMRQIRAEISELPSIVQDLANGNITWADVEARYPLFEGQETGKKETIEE

[6] = target: T4, GARS, endogenous in H929 multiple …; assay: flow cytometry, H929 + GARS siRNA (siRNA against the putative target); None 452

T2 sequence (P05362 28-480): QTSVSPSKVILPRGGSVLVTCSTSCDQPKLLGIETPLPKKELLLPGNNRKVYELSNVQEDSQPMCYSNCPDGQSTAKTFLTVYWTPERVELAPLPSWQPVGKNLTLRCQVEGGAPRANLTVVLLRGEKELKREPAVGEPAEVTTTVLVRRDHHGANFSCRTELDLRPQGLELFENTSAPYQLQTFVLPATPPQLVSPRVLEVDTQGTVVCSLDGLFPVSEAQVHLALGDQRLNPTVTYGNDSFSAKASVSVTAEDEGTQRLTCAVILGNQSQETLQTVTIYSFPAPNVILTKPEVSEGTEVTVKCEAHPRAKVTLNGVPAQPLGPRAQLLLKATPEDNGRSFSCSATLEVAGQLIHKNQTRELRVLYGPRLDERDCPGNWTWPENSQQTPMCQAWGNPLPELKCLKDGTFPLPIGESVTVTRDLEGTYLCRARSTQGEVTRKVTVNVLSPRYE
T1 sequence (P23470 20-1445 limits assumed): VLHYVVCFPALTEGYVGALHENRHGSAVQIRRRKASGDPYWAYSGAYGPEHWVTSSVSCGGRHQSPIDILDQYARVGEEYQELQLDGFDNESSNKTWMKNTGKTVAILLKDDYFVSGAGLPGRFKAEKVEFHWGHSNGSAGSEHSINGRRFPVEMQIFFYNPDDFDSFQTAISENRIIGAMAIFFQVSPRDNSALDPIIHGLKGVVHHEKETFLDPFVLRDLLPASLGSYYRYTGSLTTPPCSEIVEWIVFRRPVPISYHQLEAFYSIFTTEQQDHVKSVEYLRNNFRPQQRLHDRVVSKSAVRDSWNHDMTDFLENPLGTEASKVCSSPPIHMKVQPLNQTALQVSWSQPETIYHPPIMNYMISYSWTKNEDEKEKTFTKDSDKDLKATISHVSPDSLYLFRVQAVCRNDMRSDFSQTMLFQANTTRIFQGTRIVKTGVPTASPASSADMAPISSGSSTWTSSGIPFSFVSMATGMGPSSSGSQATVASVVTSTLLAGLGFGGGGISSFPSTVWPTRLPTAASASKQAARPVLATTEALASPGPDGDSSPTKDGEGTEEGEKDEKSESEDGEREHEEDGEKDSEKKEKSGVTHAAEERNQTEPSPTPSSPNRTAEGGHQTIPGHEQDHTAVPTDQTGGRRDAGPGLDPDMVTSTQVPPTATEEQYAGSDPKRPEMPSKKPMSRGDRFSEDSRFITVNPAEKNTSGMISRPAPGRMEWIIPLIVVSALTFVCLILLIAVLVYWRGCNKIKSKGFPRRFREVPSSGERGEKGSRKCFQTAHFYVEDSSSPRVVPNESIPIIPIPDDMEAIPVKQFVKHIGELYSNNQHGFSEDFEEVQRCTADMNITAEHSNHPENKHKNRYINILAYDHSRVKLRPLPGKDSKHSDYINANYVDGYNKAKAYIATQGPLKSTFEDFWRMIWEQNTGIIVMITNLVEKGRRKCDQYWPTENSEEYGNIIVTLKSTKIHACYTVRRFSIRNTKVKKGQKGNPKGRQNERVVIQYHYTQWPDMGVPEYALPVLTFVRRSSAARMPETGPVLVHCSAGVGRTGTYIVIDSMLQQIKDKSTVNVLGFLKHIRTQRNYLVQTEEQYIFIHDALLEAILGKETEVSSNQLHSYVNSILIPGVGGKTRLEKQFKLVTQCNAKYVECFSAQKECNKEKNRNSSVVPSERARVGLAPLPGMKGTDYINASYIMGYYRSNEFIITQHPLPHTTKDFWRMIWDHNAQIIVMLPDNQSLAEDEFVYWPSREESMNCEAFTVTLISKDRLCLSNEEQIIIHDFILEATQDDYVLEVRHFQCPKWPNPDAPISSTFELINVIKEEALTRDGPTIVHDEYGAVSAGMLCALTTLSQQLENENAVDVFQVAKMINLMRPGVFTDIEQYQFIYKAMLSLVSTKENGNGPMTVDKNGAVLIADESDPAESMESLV

Row | Binder | Cells stained (%) [1] [%] | binding result [2] | Cells stained (%) [3] [%] | Cells stained (%) [4] [%] | mAb binding (MFI) [5] | mAb binding (MFI) [6]
1 | B1 | 96.9 | no binding (tested: 150 ng IgG1 per well) | 97.2 | – | – | –
2 | B2 | – | – | – | 94.3 | – | –
3 | B3 | 98.2 | – | 99.4 | – | – | –
4 | B4 | – | no binding (tested: 150 ng IgG1 per well) | – | – | 41900 | 170000
5 | B5 | 97.2 | no binding (tested: 150 ng IgG1 per well) | 95.7 | – | – | –
6 | B6 | 98.4 | – | 99 | – | – | –
7 | B7 | 97.4 | no binding (tested: 150 ng IgG1 per well) | 98.9 | – | – | –
8 | B8 | – | – | – | – | 23200 | 76900
9 | B9 | – | – | – | 98.4 | – | –
10 | B10 | – | no binding (tested: 150 ng IgG1 per well) | – | – | 479000 | 413000
11 | B11 | – | – | – | – | 13600 | 109000
12 | B12 | – | no binding (tested: 150 ng IgG1 per well) | – | – | 630000 | 216000
13 | B13 | – | no binding (tested: 150 ng IgG1 per well) | – | – | 41600 | 155000
